Consider 11 molecules from publication PMC2408616, “Modular Organization and Combinatorial Energetics of Proline–Tyrosine Nuclear Localization Signals” (PLoS Biology, 2008).

The target of assay [1] is T1, Kap104p (yeast (S. cerevisiae), UniProt P38217 1-918).
T1 chain: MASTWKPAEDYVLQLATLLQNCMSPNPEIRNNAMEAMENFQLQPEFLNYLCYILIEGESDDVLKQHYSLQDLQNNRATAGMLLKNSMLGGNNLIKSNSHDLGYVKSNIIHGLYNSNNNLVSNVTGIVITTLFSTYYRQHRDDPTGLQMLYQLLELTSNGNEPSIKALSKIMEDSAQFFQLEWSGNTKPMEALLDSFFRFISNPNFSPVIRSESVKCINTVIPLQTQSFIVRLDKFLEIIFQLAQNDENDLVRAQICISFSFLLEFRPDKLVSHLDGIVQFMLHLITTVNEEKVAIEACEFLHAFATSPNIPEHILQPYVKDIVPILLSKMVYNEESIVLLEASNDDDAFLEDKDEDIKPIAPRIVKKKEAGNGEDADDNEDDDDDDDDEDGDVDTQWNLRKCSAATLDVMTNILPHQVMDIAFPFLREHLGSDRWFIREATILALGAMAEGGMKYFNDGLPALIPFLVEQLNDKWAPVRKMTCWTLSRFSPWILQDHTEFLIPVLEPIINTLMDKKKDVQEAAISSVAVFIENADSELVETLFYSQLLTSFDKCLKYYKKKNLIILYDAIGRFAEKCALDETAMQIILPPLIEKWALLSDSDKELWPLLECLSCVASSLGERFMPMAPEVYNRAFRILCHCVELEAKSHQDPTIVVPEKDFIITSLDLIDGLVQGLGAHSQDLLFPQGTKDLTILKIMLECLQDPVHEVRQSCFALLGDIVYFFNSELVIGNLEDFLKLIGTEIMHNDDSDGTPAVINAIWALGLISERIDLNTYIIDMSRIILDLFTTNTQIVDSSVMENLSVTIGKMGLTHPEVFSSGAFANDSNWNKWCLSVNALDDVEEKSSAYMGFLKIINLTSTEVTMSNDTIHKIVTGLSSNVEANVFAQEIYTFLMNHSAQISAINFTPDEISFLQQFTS
Kind of assay: ITC. For orientation: Isothermal titration calorimetry measures the heat released or taken up as one component is titrated into another.

The target in assay [2] is T2, Kap104p (yeast (S. cerevisiae), UniProt P38217 1-918).
T2 construct: Kap104p, yeast homolog of Kapβ2; gene a gift from J. Aitchison, subcloned into pGEX-Tev; also called yeast Karyopherin β2 homolog; source: E. coli Rosetta(DE3)pLysS, purified (glutathione sepharose, TEV cleavage, anion exchange, gel filtration)
T2 sequence (looked up): T1 chain
The assay is described as follows: ITC; 90–350 μM MBP-NLS titrated into 9–35 μM Kap104p in the cell; 20 °C; 20 mM Tris pH 7.5, 100 mM NaCl, 2 mM β-mercaptoethanol, 10% glycerol; 35 injections of 8 μl; single-site model. As to conditions: both partners purified.

In assay [3] the target is T3, Kap104p, P38217.
T3 chain: T1 chain
Kind of assay: ITC. The settings on record: for ddG / ratio to parent: chain shown with the change; for other: TΔS / Kd / other: ΔH / dG: chain shown with the change;; for other: TΔS: parent: 0.09 ± 0.7; for Kd: parent: 32 ± 16; for other: ΔH: parent: -10.0 ± 0.5; for dG: parent: -10.1 ± 0.3.

Where a chain is given by its changes, count along the chain named. Numbers in names are those of the source.

Broadly, the Kd is the equilibrium constant for the complex coming apart. With RDRNDRDRDYNHRSGGNHRRNGRGGRGGYNARNNGYHPYNR [MBP–Hrp1p NLS R524A], binding in assay [1] was characterised by a dissociation constant (Kd) of 37 nM.
As for RDRNDRDRDYNHRSGGNHRRNGRGGRGGYNRANNGYHPYNR [MBP–Hrp1p NLS R525A], in assay [1], the Kd was determined as 13 nM.

B1: MBP–Hrp1p NLS R512,R513,R516,R519/AAAA (domain or fragment, S. cerevisiae, UniProt Q99383 494-534, looked up)
chain: RDRNDRDRDYNHRSGGNHAANGAGGAGGYNRRNNGYHPYNR
notes: Hrp1p NLS, residues 494-534; also called quadruple mutant (arginines to alanines); source: E. coli BL21(DE3), purified (amylose resin, cation exchange)
B1 showed a Kd in assay [1] of 194 nM. In assay [2], the “fold decrease in binding against wild type” value amounted to 5 fold.

B2: MBP–Hrp1p NLS Y532H (domain or fragment, S. cerevisiae, UniProt Q99383 494-534, looked up)
chain: B1 chain with A19R, A20R, A23R, A26R, Y39H
notes: Hrp1p NLS, residues 494-534; source: E. coli BL21(DE3), purified (amylose resin, cation exchange)
B2 showed a dissociation constant Kd in assay [2] of 1000 nM.

B3: MBP–Hrp1p NLS Y529A (domain or fragment, S. cerevisiae, UniProt Q99383 494-534, looked up)
chain: B1 chain with A19R, A20R, A23R, A26R, Y36A
notes: as for B2
In assay [1], B3 displayed a Kd of 143 nM. Further, the “KD,mutant/KD,wild type” value in assay [2] is 4.

B4: MBP–Hrp1p NLS Y532M (domain or fragment, S. cerevisiae, UniProt Q99383 494-534, looked up)
chain: B1 chain with A19R, A20R, A23R, A26R, Y39M
notes: as for B2
In turn, B4 displayed a Kd in assay [2] of 2000 nM.

B5: MBP–Hrp1p NLS 512RRNG515/AAAA (domain or fragment, S. cerevisiae, UniProt Q99383 494-534, looked up)
chain: B1 chain with N21A, G22A, A23R, A26R
notes: as for B2
As to B5, in assay [3], the ddG was determined as 0.2 kcal/mol, the ratio to parent was found to be 1.5, the other: TΔS is 1.5 kcal/mol/K and the equilibrium dissociation constant (Kd) was 48 nM. Besides, in assay [3], the other: ΔH is -8.3 kcal/mol and the dG was -9.8 kcal/mol. For the same molecule, in assay [2], the binding result is recorded as “binds”.

B6: MBP–Hrp1p NLS 524RR525/AA (domain or fragment, S. cerevisiae, UniProt Q99383 494-534, looked up)
chain: RDRNDRDRDYNHRSGGNHRRNGRGGRGGYNAANNGYHPYNR
notes: as for B2
With B6, the Kd in assay [3] stood at 62 nM. In addition, in assay [2], the “KD,mutant/KD,wild type” value was 1.7.

B7: MBP–Hrp1p NLS 516RGG518/AAA (domain or fragment, S. cerevisiae, UniProt Q99383 494-534, looked up)
chain: B1 chain with A19R, A20R, G24A, G25A, A26R
notes: as for B2
B7: in assay [3], the ddG is -0.3 kcal/mol, the ratio to parent stood at 0.7, the other: TΔS stood at 2 kcal/mol/K and the Kd was 24 nM. In assay [3], the other: ΔH is -8.3 kcal/mol and the dG is -10.3 kcal/mol. Also, the binding result in assay [2] is “binds”.

B8: MBP–Hrp1p NLS R512, R513, R516, R519/KKKK (domain or fragment, S. cerevisiae, UniProt Q99383 494-534, looked up)
chain: B1 chain with A19K, A20K, A23K, A26K
notes: Hrp1p NLS, residues 494-534; also called quadruple mutant (arginines to lysines); source: E. coli BL21(DE3), purified (amylose resin, cation exchange)
In assay [1], B8 came in with a dissociation constant (Kd) of 36 nM. Moreover, the binding result in assay [2] is “binds”.

B9: MBP–Hrp1p NLS Y529L (domain or fragment, S. cerevisiae, UniProt Q99383 494-534, looked up)
chain: B6 chain with A31R, A32R, Y36L
notes: as for B2
Molecule B9 displayed a dissociation constant Kd in assay [1] of 37 nM. For the same molecule, the binding result in assay [2] is “binds”.
